# Reference: publication PMC7195465, “Molecular mechanism of light-driven sodium pumping” (Nature Communications, 2020)
# B1: light-driven sodium-pumping rhodopsin KR2 from Krokinobacter eikastus (natural protein)
# chain: MTQELGNANFENFIGATEGFSEIAYQFTSHILTLGYAVMLAGLLYFILTIKNVDKKFQMSNILSAVVMVSAFLLLYAQAQNWTSSFTFNEEVGRYFLDPSGDLFNNGYRYLNWLIDVPMLLFQILFVVSLTTSKFSSVRNQFWFSGAMMIITGYIGQFYEVSNLTAFLVWGAISSAFFFHILWVMKKVINEGKEGISPAGQKILSNIWILFLISWTLYPGAYLMPYLTGVDGFLYSEDGVMARQLVYTIADVSSKVIYGVLLGNLAITLSKNKELVEANS
# modifications: retinal covalently bound to the lysine residue of helix G via the Schiff base
# notes: KR2, light-driven Na+-pumping rhodopsin of Krokinobacter eikastus; Pentamer in the crystals grown at pH 8.0; the construct is not described beyond 'KR2 expression plasmid'; also called KR2-WT; WT protein; source: E. coli SE1 (Staby Codon T7), purified (DDM solubilisation, Ni-NTA, SEC)
# Columns and labels:
# Assay in all cases: crystal structure; in meso (monoolein) crystals, 1.2 M sodium malonate pH 8.0, grown at 22 °C; pentameric form, space group C222_(1); data at 100 K and at room temperature
# [1] = biological target: KR2-D116N (Krokinobacter eikastus)
# [2] = biological target: KR2-H30A (Krokinobacter eikastus)
# [3] = biological target: the molecule itself
molecule,measurement,setting,value
KR2-D116N (natural protein),stoichiometry N,[1],5
KR2-H30A (natural protein),stoichiometry N,[2],5
B1,stoichiometry N,[3],5
